The text below walks through data of article PMC5482573.

The assay has as its target COPI coat leaf (one coatomer complex with two Arf1 molecules) assembled on vesicle membranes (M. musculus | S. cerevisiae) (UniProt Q8CIE6). Kind of assay: cryo-EM structure; COPI coated vesicles with GTPγS incubated 15–20 min with a 10 molar excess of ArfGAP2; subtomogram averaging, difference map and classification; class with ArfGAP2 at 10.1 Å.

Chain of R. norvegicus ArfGAP2, full-length, N-terminally His-tagged (Q3MID3 whole entry): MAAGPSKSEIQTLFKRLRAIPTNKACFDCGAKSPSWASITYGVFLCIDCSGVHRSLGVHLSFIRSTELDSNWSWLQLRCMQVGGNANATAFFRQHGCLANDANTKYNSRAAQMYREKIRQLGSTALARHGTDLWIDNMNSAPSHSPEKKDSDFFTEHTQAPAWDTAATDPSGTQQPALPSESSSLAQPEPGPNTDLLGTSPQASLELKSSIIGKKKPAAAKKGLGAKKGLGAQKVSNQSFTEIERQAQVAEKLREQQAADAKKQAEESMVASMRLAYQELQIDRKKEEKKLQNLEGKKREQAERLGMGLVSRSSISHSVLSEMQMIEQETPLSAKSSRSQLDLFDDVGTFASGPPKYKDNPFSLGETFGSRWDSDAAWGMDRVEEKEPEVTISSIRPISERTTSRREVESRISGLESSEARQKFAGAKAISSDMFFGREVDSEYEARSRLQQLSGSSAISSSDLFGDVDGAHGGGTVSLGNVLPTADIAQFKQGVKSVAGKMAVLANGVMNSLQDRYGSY

The substance “R. norvegicus ArfGAP2, full-length, N-terminally His-tagged (from UniProt Q3MID3 1-520) (enzyme)” registered a share of the leaves in the class with bound ArfGAP2 of 65%.
